In patent US20160046707A1 (EISAI R AND D MANAGEMENT, published 2016):

How the values were obtained:
Test in all cases: ELISA, plate-bound chemokine (1 ug/ml), antibody 10 ug/ml, OD450
recombinant human CXCL2 = molecular target: T1, recombinant human CXCL2 (human, UniProt P19875 35-107)
T1 construct: also called GROβ
T1 sequence (looked up): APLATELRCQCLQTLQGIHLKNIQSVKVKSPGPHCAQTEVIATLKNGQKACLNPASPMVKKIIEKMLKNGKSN
Method: (§1) The wells of a 96-well plate were coated with 1 μg/ml of the recombinant human chemokines in PBS (−). After overnight incubation at 4° C., the wells were blocked with 1× Block-Ace (Dainippon Sumitomo Pharma, UK-B80) for 1 hour at room temperature. After washing twice with 0.02% Tween 20/PBS (−), we added 50 μl of 10 μg/ml purified 36F7C10, chimeric 36F710, HC2/LK3, or HC2/LC3 in 0.02% Tween 20/PBS (−) to each well. The wells were incubated for 1 hour at room temperature and washed three times as described in Example 3. […] After washing five times, a TMBZ (3,3′,5,5′-tetramethylbenzidine) solution (1%, in N,N-Dimethylformamide) was added to the wells and incubated for 15-30 minutes. The reaction was stopped by adding an equal volume of a 2 M H₂SO₄ stopping solution, and the optical density was read at 450 nm by ARVO (PerkinElmer).

recombinant human CCL1 = molecular target: T2, recombinant human CCL1 (human, UniProt P22362 24-96, limits assumed)
T2 sequence (looked up): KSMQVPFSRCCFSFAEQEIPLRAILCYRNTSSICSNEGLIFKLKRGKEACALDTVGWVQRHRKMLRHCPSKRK
Method: as §1

recombinant human CCL24 = molecular target: T3, recombinant human CCL24 (human, UniProt O00175 27-119, limits assumed)
T3 construct: also called Eotaxin-2/MPIF-2
T3 sequence (looked up): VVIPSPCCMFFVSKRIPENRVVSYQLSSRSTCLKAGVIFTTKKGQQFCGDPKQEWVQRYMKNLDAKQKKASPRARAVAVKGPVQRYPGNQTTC
Method: as §1

recombinant human CXCL1 = molecular target: T4, recombinant human CXCL1 (human, UniProt P09341 35-107)
T4 construct: also called GROα
T4 sequence (looked up): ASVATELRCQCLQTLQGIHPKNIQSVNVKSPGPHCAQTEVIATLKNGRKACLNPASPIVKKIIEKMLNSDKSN
Method: as §1

recombinant human CXCL12 = molecular target: T5, recombinant human CXCL12 (human, UniProt P48061-2 22-89)
T5 construct: also called SDF-1/PBSF
Method: as §1

recombinant human CXCL13 = molecular target: T6, recombinant human CXCL13 (human, UniProt O43927 23-109)
T6 construct: also called BCA-1/BLC
T6 sequence (looked up): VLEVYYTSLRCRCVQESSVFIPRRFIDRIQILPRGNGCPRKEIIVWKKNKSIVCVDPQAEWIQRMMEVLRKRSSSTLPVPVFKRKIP
Method: as §1

recombinant human CXCL9 = molecular target: T7, recombinant human CXCL9 (human, UniProt Q07325 23-125)
T7 construct: also called MIG
T7 sequence (looked up): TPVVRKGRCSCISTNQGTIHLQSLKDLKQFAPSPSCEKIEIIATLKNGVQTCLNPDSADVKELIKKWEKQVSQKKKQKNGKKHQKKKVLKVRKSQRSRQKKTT
Method: as §1

recombinant human CCL13 = molecular target: T8, recombinant human CCL13 (human, UniProt Q99616 24-98)
T8 construct: also called MCP-4
Method: as §1

recombinant human CCL17 = molecular target: T9, recombinant human CCL17 (human, UniProt Q92583 24-94)
T9 construct: also called TARC
T9 sequence (looked up): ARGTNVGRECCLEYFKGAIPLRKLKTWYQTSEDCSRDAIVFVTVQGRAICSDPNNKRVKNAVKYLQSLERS
Method: as §1

recombinant human CXCL8 = molecular target: T10, recombinant human CXCL8 (human, UniProt P10145 28-99)
T10 construct: also called IL-8
T10 sequence (looked up): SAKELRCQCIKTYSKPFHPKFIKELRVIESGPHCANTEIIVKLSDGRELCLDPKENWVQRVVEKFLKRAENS
Method: as §1

recombinant human CCL7 = molecular target: T11, recombinant human CCL7 (human, UniProt P80098 24-99)
T11 construct: also called MARC
Method: as §1

recombinant human CCL2 = molecular target: T12, recombinant human CCL2 (human, UniProt P13500 24-99)
T12 construct: also called MCP-1/MCAF/JE
Method: as §1

recombinant human CCL3 = molecular target: T13, recombinant human CCL3 (human, UniProt P10147 27-92, limits assumed)
T13 construct: also called MIP-1a
T13 sequence (looked up): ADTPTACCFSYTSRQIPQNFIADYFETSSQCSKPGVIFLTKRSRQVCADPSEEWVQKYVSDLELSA
Method: as §1

[1] = molecular target: T14, recombinant human CX3CL1 (Extracellular Domain) (human, UniProt P78423 25-341)
T14 construct: extracellular domain; also called FKN
T14 sequence (looked up): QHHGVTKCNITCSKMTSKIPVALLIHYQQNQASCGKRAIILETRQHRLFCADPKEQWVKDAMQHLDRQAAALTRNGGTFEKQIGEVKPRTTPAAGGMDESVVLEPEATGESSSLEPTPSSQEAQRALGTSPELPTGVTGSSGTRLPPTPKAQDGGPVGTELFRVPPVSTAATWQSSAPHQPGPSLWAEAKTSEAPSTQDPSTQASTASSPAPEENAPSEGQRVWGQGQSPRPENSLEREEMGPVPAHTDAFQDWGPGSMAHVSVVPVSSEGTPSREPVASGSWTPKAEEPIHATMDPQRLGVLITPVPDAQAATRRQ
Method: as §1

Measured: binding result

T11 sequence (P80098 24-99 limits assumed): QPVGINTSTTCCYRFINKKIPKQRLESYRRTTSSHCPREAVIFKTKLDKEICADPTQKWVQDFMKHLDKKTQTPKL
T5 sequence (P48061 22-89 limits assumed): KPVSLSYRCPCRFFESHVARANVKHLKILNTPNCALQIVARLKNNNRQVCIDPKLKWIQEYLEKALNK
T8 sequence (Q99616 24-98 limits assumed): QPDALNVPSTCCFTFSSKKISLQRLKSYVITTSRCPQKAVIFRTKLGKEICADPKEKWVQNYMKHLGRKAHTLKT
T12 sequence (P13500 24-99 limits assumed): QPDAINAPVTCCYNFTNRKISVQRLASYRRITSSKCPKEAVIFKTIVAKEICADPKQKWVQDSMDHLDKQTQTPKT

B1: humanized anti-human CCL20 antibody 36LK3/36HC2 (antibody, human IgG1, kappa, V domains shown)
VH: QVQLVQSGAEVKKPGASVKVSCKASGYTFTNYWMHWVRQAPGQGLEWMGVIDPSDSYTTYAQKFQGRVTMTVDTSTSTVYMELSSLRSEDTAVYYCARGNYGVDYAMDYWGQGTLVTVSS
VL: DIQMTQSPSSLSASVGDRVTITCGASENIYGALNWYQRKPGKAPKLLIYGATNLADGVPSRFSGSGSGRDYTLTISSLQPEDFATYYCQNVLITPYTFGQGTKLEIKR
notes: expressed in HEK293 cells; also called HC2/LK3; HC2LK3
no binding (tested: 10 ug/ml): recombinant human CXCL2 | recombinant human CCL1 | recombinant human CCL24 | recombinant human CXCL1 | recombinant human CXCL12 | recombinant human CXCL13 | recombinant human CXCL9 | recombinant human CCL13 | recombinant human CCL17 | recombinant human CXCL8 | recombinant human CCL7 | recombinant human CCL2 | recombinant human CCL3 | [1]

B2: humanized anti-human CCL20 antibody 36LC3/36HC2 (antibody, human IgG1, kappa, V domains shown)
VH: QVQLVQSGAEVKKPGASVKVSCKASGYTFTNYWMHWVRQAPGQGLEWMGVIDPSDSYTTYAQKFQGRVTMTVDTSTSTVYMELSSLRSEDTAVYYCARGNYGVDYAMDYWGQGTLVTVSS
VL: DIQMTQSPSSLSASVGDRVTITCRASENIYGALNWYQQKPGKAPKLLIYGATNLADGVPSRFSGSGSGRQYSLTISSLQPEDFATYYCQNVLITPYTFGGGTKLEIKR
notes: expressed in HEK293 cells; also called HC2/LC3; HC2LC3
no binding (tested: 10 ug/ml): recombinant human CXCL2 | recombinant human CCL1 | recombinant human CCL24 | recombinant human CXCL1 | recombinant human CXCL12 | recombinant human CXCL13 | recombinant human CXCL9 | recombinant human CCL13 | recombinant human CCL17 | recombinant human CXCL8 | recombinant human CCL7 | recombinant human CCL2 | recombinant human CCL3 | [1]

B3: mouse anti-human CCL20 monoclonal antibody 36F7C10 (antibody, V domains shown)
VH: QVQLQQPGAELVKPGASVKMSCKASGYTFTNYWMHWVKQRPGQGLEWIGVIDPSDSYTTYNQKFKGKATLTVDTSSSTAYMQLSSLTSEDSAVYYCTRGNYGVDYAMDYWGQGTSVTVSS
VL: DIQMTQSPASLSASVGETVTITCGASENIYGALNWYQRKQGKSPQLLIYGATNLADGMSSRFSGSGSGRQYSLKISSLHPDDVATYYCQNVLITPYTFGGGTKLEIK
notes: Mouse hybridoma antibody; also called MouseMAb; parental mouse clone 36F7C10
no binding (tested: 10 ug/ml): recombinant human CXCL2 | recombinant human CCL1 | recombinant human CCL24 | recombinant human CXCL1 | recombinant human CXCL12 | recombinant human CXCL13 | recombinant human CXCL9 | recombinant human CCL13 | recombinant human CCL17 | recombinant human CXCL8 | recombinant human CCL7 | recombinant human CCL2 | recombinant human CCL3 | [1]

B4: chimeric 36F7C10 antibody (36F7C10-hFc) (antibody, V domains shown)
VH: QVQLQQPGAELVKPGASVKMSCKASGYTFTNYWMHWVKQRPGQGLEWIGVIDPSDSYTTYNQKFKGKATLTVDTSSSTAYMQLSSLTSEDSAVYYCTRGNYGVDYAMDYWGQGTSVTVSS
VL: DIQMTQSPASLSASVGETVTITCGASENIYGALNWYQRKQGKSPQLLIYGATNLADGMSSRFSGSGSGRQYSLKISSLHPDDVATYYCQNVLITPYTFGGGTKLEIK
notes: also called chimeric 36F710; Chimeric MAb
no binding (tested: 10 ug/ml): recombinant human CXCL2 | recombinant human CCL1 | recombinant human CCL24 | recombinant human CXCL1 | recombinant human CXCL12 | recombinant human CXCL13 | recombinant human CXCL9 | recombinant human CCL13 | recombinant human CCL17 | recombinant human CXCL8 | recombinant human CCL7 | recombinant human CCL2 | recombinant human CCL3 | [1]
